Data taken from US20210403565A1 (BIOATLA, published 2021).
Substitutions are numbered along the chain they refer to. Each block holds one binder with its values, some of them ahead of it.

How the values were obtained:
[1] = target: T1, human CTLA4 expressed on the cell surface of CHO cells (human, UniProt P16410 36-223); assay: FACS competition on CHO-huCTLA4: hB7-2 titrated against a fixed concentration of Ipilimumab, bound antibody detected, % competition; pH 6.0 per the text; no plateau reached (about 25 to 45 % at log 3.95); unit from the axis hB7-2 log[ng/mL]
T1 construct: whole, on cells; also called CHO-huCTLA4; huCTLA4
T1 sequence (looked up): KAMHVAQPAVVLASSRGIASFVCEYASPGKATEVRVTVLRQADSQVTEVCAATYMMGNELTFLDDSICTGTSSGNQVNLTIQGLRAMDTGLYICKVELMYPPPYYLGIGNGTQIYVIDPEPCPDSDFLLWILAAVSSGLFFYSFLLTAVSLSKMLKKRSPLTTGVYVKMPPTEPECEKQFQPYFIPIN

[2] = target: T1, human CTLA4 expressed on the cell …; assay: FACS competition on CHO-huCTLA4: hB7-2 titrated against a fixed concentration of BA-087-05-19, bound antibody detected, % competition; pH 6.0 per the text; no plateau reached (about 25 to 45 % at log 3.95); unit from the axis hB7-2 log[ng/mL]
[3] = target: T1, human CTLA4 expressed on the cell …; assay: FACS competition on CHO-huCTLA4: hB7-2 titrated against a fixed concentration of BA-087-08-32, bound antibody detected, % competition; pH 6.0 per the text; no plateau reached (about 25 to 45 % at log 3.95); unit from the axis hB7-2 log[ng/mL]
[4] = target: T1, human CTLA4 expressed on the cell …; assay: FACS competition on CHO-huCTLA4: hB7-2 titrated against a fixed concentration of Ipi Analog, bound antibody detected, % competition; pH 6.0 per the text; no plateau reached (about 25 to 45 % at log 3.95), fit marked ~; unit from the axis hB7-2 log[ng/mL]
[5] = target: T2, cynomolgus CTLA4 expressed on the cell surface of CHO cells (cynomolgus, UniProt G7PL88 36-223); assay: FACS on CHO-cynoCTLA4 cells, pH 6.0, mean
T2 construct: whole, on cells; also called CHO-cynoCTLA4
T2 sequence: T1 sequence (looked up) with S14N, I18T, L106M
Experimental: The amount of antibodies bound on the cells was quantified using anti-human IgG antibody conjugated to fluorophores. EC₅₀ values at pH 6.0 and 7.4 for binding to cells were calculated using the nonlinear fit (variable slope, four parameters) model built into GraphPad Prism software (version 7.03). The expression levels of human CTLA4 or cynomolgus CTLA4 on the surface of the CHO cells were determined using a BD QuantiBRITE™ PE kit.

[6] = target: T3, recombinant cynomolgus CTLA4 extracellular domain (cynomolgus, UniProt G7PL88 36-161); assay: ELISA, immobilised cynoCTLA-4, pH 6.0, mean +/- SD
T3 construct: extracellular domain; also called cynoCTLA-4; cynoCTLA4
T3 sequence: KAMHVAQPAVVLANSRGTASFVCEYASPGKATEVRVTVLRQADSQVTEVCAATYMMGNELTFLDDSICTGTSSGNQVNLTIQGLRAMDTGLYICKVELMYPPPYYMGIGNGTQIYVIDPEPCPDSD

[7] = target: T3, recombinant cynomolgus CTLA4 …; assay: ELISA, immobilised cynoCTLA-4, pH 6.0, Jun. 19, 2017
[8] = target: T3, recombinant cynomolgus CTLA4 …; assay: ELISA, immobilised cynoCTLA-4, pH 6.0, Jun. 27, 2017
[9] = target: T3, recombinant cynomolgus CTLA4 …; assay: SPR, cynomolgus CTLA4 ECD immobilised, pH 6.0, equilibrium fit
[10] = target: T2, cynomolgus CTLA4 expressed on the cell …; assay: FACS, CHO cells expressing cynomolgus CTLA4 (CHO-cynoCTLA-4), pH 7.4, MFI; no unit in the table, unit from the axis Log Antibodies [ng/ml]

EC50 [1]: 7.19 µg/mL | EC50 [2]: 3.73 µg/mL | EC50 [3]: 3.87 µg/mL | EC50 [4]: ~2.45 µg/mL
B1: hB7-2 (hCD86) (ligand, human, UniProt P42081 24-247, looked up)
chain: APLKIQAYFNETADLPCQFANSQNQSLSELVVFWQDQENLVLNEVYLGKEKFDSVHSKYMGRTSFDSDSWTLRLHNLQIKDKGLYQCIIHHKKPTGMIRIHQMNSELSVLANFSQPEIVPISNITENVYINLTCSSIHGYPEPKKMSVLLRTKNSTIEYDGVMQKSQDNVTELYDVSISLSVSFPDVTSNMTIFCILETDKTRLLSSPFSIELEDPQPPPDHIP

EC50 [5]: 0.338 µg/mL | EC50 [6]: 0.0153 µg/mL | EC50 [7]: 0.00966 µg/mL | EC50 [8]: 0.021 µg/mL | Kd [9]: 6.58 nM | EC50 [10]: 0.177 µg/mL
B2: Ipilimumab (antibody, V domains shown)
VH: QVQLVESGGGVVQPGRSLRLSCAASGFTFSSYTMHWVRQAPGKGLEWVTFISYDGNNKYYADSVKGRFTISRDNSKNTLYLQMNSLRAEDTAIYYCARTGWLGPFDYWGQGTLVTVSS
VL: not shown
